B1: YWO.49.H2-MC-vc-PAB-MMAF (antibody, V domains shown)
VH: EVQLVESGGGLVQPGGSLRLSCAASGFTITNYGIHWVRQAPGKGLEWVGRIYPDSGATYYADSVKGRFTISADTSKNTAYLQMNSLRAEDTAVYYCARKLWVSLAPMDYWGQGTLVTVSS
VL: DIQMTQSPSSLSASVGDRVTITCRASQDVSTAVAWYQQKPGKAPKLLIYSASFLYSGVPSRFSGSGSGTDFTLTISSLQPEDFATYYCQQSYGTPFIFGQGTKVEIKR
modifications: MC-vc-PAB-MMAF conjugated to cysteine residues of the partially reduced antibody; average drug load 4.7 per antibody
B2: YWO.49.H6 (antibody, V domains shown)
VH: EVQLVESGGGLVQPGGSLRLSCAASGFTITNYGIHWVRQAPGKGLEWVGRIYPDSGATYYADSVKGRFTISADTSKNTAYLQMNSLRAEDTAVYYCARKLWISIAGMDYWGQGTLVTVSS
VL: DIQMTQSPSSLSASVGDRVTITCRASQDVSTAVAWYQQKPGKAPKLLIYSASFLYSGVPSRFSGSGSGTDFTLTISSLQPEDFATYYCQHSYATPFTFGQGTKVEIKR
notes: also called YWO.H6
B3: YWO.49.H6-MC-vc-PAB-MMAF (antibody, V domains shown)
VH: EVQLVESGGGLVQPGGSLRLSCAASGFTITNYGIHWVRQAPGKGLEWVGRIYPDSGATYYADSVKGRFTISADTSKNTAYLQMNSLRAEDTAVYYCARKLWISIAGMDYWGQGTLVTVSS
VL: DIQMTQSPSSLSASVGDRVTITCRASQDVSTAVAWYQQKPGKAPKLLIYSASFLYSGVPSRFSGSGSGTDFTLTISSLQPEDFATYYCQHSYATPFTFGQGTKVEIKR
modifications: MC-vc-PAB-MMAF conjugated to cysteine residues of the partially reduced antibody; average drug load 4.4 per antibody
B4: YWO.49.H2-MC-vc-PAB-MMAE (antibody, V domains shown)
VH: EVQLVESGGGLVQPGGSLRLSCAASGFTITNYGIHWVRQAPGKGLEWVGRIYPDSGATYYADSVKGRFTISADTSKNTAYLQMNSLRAEDTAVYYCARKLWVSLAPMDYWGQGTLVTVSS
VL: DIQMTQSPSSLSASVGDRVTITCRASQDVSTAVAWYQQKPGKAPKLLIYSASFLYSGVPSRFSGSGSGTDFTLTISSLQPEDFATYYCQQSYGTPFIFGQGTKVEIKR
modifications: MC-vc-PAB-MMAE conjugated to cysteine residues of the partially reduced antibody; average drug load 3.8 per antibody
B5: YWO.49.H6-MC-vc-PAB-MMAE (antibody, V domains shown)
VH: EVQLVESGGGLVQPGGSLRLSCAASGFTITNYGIHWVRQAPGKGLEWVGRIYPDSGATYYADSVKGRFTISADTSKNTAYLQMNSLRAEDTAVYYCARKLWISIAGMDYWGQGTLVTVSS
VL: DIQMTQSPSSLSASVGDRVTITCRASQDVSTAVAWYQQKPGKAPKLLIYSASFLYSGVPSRFSGSGSGTDFTLTISSLQPEDFATYYCQHSYATPFTFGQGTKVEIKR
modifications: MC-vc-PAB-MMAE conjugated to cysteine residues of the partially reduced antibody; average drug load 4.4 per antibody
B6: YWO.49 (antibody, V domains shown)
VH: EVQLVESGGGLVQPGGSLRLSCAASGFTITNYGIHWVRQAPGKGLEWVGRIYPDSGATYYADSVKGRFTISADTSKNTAYLQMNSLRAEDTAVYYCARKLWVSRAGMDYWGQGTLVTVSS
VL: DIQMTQSPSSLSASVGDRVTITCRASQDVSTAVAWYQQKPGKAPKLLIYSASFLYSGVPSRFSGSGSGTDFTLTISSLQPEDFATYYCQQSYTTPPTFGQGTKVEIKR
notes: detected with anti-human IgG; also called anti-TAT226 monoclonal antibody YWO.49
B7: YWO.49.C9 (antibody, V domains shown)
VH: EVQLVESGGGLVQPGGSLRLSCAASGFTITNYGIHWVRQAPGKGLEWVGRIYPDSGATYYADSVKGRFTISADTSKNTAYLQMNSLRAEDTAVYYCARKLWVTLASMDYWGQGTLVTVSS
VL: DIQMTQSPSSLSASVGDRVTITCRASQDVSTAVAWYQQKPGKAPKLLIYSASFLYSGVPSRFSGSGSGTDFTLTISSLQPEDFATYYCQKSYNTPPTFGQGTKVEIKR
B8: YWO.49.B7 (antibody, V domains shown)
VH: EVQLVESGGGLVQPGGSLRLSCAASGFTITNYGIHWVRQAPGKGLEWVGRIYPDSGATYYADSVKGRFTISADTSKNTAYLQMNSLRAEDTAVYYCARKLWVSLAAMDYWGQGTLVTVSS
VL: DIQMTQSPSSLSASVGDRVTITCRASQDVSTAVAWYQQKPGKAPKLLIYSASFLYSGVPSRFSGSGSGTDFTLTISSLQPEDFATYYCQRSVFTPPAFGQGTKVEIKR
B9: YWO.49.H2 (antibody, V domains shown)
VH: EVQLVESGGGLVQPGGSLRLSCAASGFTITNYGIHWVRQAPGKGLEWVGRIYPDSGATYYADSVKGRFTISADTSKNTAYLQMNSLRAEDTAVYYCARKLWVSLAPMDYWGQGTLVTVSS
VL: DIQMTQSPSSLSASVGDRVTITCRASQDVSTAVAWYQQKPGKAPKLLIYSASFLYSGVPSRFSGSGSGTDFTLTISSLQPEDFATYYCQQSYGTPFIFGQGTKVEIKR

Assays:
[1] = biological target: T1, recombinant gD:human TAT226 fusion protein expressed on HCT116#9-4 cells (herpes simplex virus type 1; human, UniProt Q8N2G4 23-141); assay: cell-based or functional assay
T1 sequence: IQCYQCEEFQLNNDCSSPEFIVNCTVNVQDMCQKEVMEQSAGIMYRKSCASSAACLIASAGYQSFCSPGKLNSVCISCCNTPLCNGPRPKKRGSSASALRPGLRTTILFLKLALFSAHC

[2] = biological target: T2, human TAT226 expressed on the surface of OVCAR3 cells (human, UniProt Q8N2G4 21-117); assay: cell-based or functional assay
T2 sequence: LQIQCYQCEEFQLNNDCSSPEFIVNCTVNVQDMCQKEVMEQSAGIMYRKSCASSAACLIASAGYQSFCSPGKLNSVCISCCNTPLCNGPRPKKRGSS

[3] = biological target: T2, human TAT226 expressed on the surface …; assay: competition of iodinated antibody with unlabeled antibody on OVCAR3 cells, Scatchard analysis
Procedure: The binding affinity of YWO.49.H2 and YWO.49.H6 for TAT226 expressed on the surface of OVCAR3 cells was examined using a competition assay. Briefly, labeled (iodinated) YWO.49.H2 or YWO.49.H6 was allowed to bind to OVCAR3 cells in the presence of unlabeled antibody. Binding affinity of the antibodies was determined in accordance with the Scatchard analysis methodology initially described in Munson et al., Anal. Biochem. 107:220 (1980).

[4] = biological target: T3, recombinant TAT226-His fusion protein (human, UniProt Q8N2G4 21-115); assay: SPR, BIACORE 3000, IgG immobilised on CM5 chip, TAT226-His injected (0.7-500 nM), 25 C
T3 construct: also called recombinant antigen; not shown: C-terminal polyhistidine tag
T3 sequence: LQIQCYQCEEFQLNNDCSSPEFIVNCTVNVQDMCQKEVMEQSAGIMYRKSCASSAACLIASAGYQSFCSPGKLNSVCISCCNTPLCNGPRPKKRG
Procedure: The binding affinity of YWO.49, YWO.49.B7, YWO.49.C9, YWO.49.H2, and YWO.49.H6 for recombinant antigen was determined by surface plasmon resonance measurement using a BIACORE® 3000 system (Biacore, Inc., Piscataway, N.J.). Briefly, carboxymethylated dextran biosensor chips (CM5, Biacore Inc.) were activated with N-ethyl-N′-(3-dimethylaminopropyl)-carbodiimide hydrochloride (EDC) and N-hydroxysuccinimide (NHS) according to the supplier's instructions. Anti-TAT226 antibody was diluted to 5 ug/ml with 10 mM sodium acetate, pH 4.8, before injection at a flow rate of 5 μl/minute to achieve approximately 500 response units (RU) of coupled antibody. Next, 1M ethanolamine was injected to block unreacted groups. For kinetics measurements, two-fold serial dilutions of TAT226-His (0.7 nM to 500 nM) were injected in PBS with 0.05% Tween 20 at 25° C. at a flow rate of 25 μl/min Association rates (kₒₙ) and dissociation rates (koff) were calculated using a simple one-to-one Langmuir binding model (BIAevaluation Software version 3.2). The equilibrium dissociation constant (Kd) was calculated as the ratio koff/kₒₙ.

Row | Binder | IC50, in vitro cell killing assay on HCT116#9-4 transfectants (CellTiter-Glo, 3 days) [1] [nM] | IC50, OVCAR3 in vitro cell killing assay (CellTiter-Glo, 5 days) [2] [nM] | Kd [3] [nM] | Kd [4] [nM]
1 | B1 | ~0.05 | ~0.005 |  | 
2 | B2 |  |  | 0.404 | 0.05
3 | B3 | ~0.05 | ~0.005 |  | 
4 | B4 |  | ~0.2 |  | 
5 | B5 |  | ~0.2 |  | 
6 | B6 |  |  |  | 47.2
7 | B7 |  |  |  | < 0.03
8 | B8 |  |  |  | < 0.18
9 | B9 |  |  | 0.348 | 0.23

Source: patent US20120100159A1 (Genentech, published 2012)
